B1: Chaperonin GroEL 2 (Mycobacterium tuberculosis (strain ATCC 25618 / P9WPE7 (parent)
chain: MAKTIAYDEEARRGLERGLNALADAVKVTLGPKGRNVVLEKKWGAPTITNDGVSIAKEIELEDPYEKIGAELVKEVAKKTDDVAGDGTTTATVLAQALVREGLRNVAAGANPLGLKRGIEKAVEKVTETLLKGAKEVETKEQIAATAAISAGDQSIGDLIAEAMDKVGNEGVITVEESNTFGLQLELTEGMRFDKGYISGYFVTDPERQEAVLEDPYILLVSSKVSTVKDLLPLLEKVIGAGKPLLIIAEDVEGEALSTLVVNKIRGTFKSVAVKAPGFGDRRKAMLQDMAILTGGQVISEEVGLTLENADLSLLGKARKVVVTKDETTIVEGAGDTDAIAGRVAQIRQEIENSDSDYDREKLQERLAKLAGGVAVIKAGAATEVELKERKHRIEDAVRNAKAAVEEGIVAGGGVTLLQAAPTLDELKLEGDEATGANIVKVALEAPLKQIAFNSGLEPGVVAEKVRNLPAGHGLNAQTGVYEDLLAAGVADPVKVTRSALQNAASIAGLFLTTEAVVADKPEKEKASVPGGGDMGGMDF
partner: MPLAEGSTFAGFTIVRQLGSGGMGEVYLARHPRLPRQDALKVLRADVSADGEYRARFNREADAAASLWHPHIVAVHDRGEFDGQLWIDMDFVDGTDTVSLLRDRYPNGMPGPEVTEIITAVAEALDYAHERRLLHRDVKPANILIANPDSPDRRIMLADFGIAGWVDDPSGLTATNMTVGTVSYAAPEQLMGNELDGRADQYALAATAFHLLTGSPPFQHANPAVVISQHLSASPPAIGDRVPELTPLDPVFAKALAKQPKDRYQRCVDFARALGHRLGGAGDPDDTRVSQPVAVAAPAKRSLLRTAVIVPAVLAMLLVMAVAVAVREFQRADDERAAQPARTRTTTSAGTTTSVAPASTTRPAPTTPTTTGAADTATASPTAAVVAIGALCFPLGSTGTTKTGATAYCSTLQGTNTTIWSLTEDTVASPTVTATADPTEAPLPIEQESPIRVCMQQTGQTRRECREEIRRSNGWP
B2: Alpha-crystallin (Mycobacterium tuberculosis (strain ATCC 25618 / P9WMK1 (parent)
chain: MATTLPVQRHPRSLFPEFSELFAAFPSFAGLRPTFDTRLMRLEDEMKEGRYEVRAELPGVDPDKDVDIMVRDGQLTIKAERTEQKDFDGRSEFAYGSFVRTVSLPVGADEDDIKATYDKGILTVSVAVSEGKPTEKHIQIRSTN
partner: B1 partner

Variants of: B1
Conditions: with pknf_myctu pknF

Variant | effect of a mutation on the interaction
T90A | decreasing interaction
T92A | decreasing interaction
T127A | decreasing interaction

Variants of: B2
Conditions: with pknf_myctu pknF

Variant | effect of a mutation on the interaction
T4A | decreasing interaction
S19A | decreasing interaction
S27A | decreasing interaction
T134A | decreasing interaction
